Reference: patent US20210302442A1 (MAX DELBR CK CENTRUM F R MOLEKULARE MEDIZIN IN DER …, published 2021)

Target: the molecule itself
Test: AFM of spontaneously formed aggregates (self-assembly)

B1: Ex1Q48 (other)
chain: MATLEKLMKAFESLKSFQQQQQQQQQQQQQQQQQQQQQQQQQQQQQQQQQQQQQQQQQQQQQQQQPPPPPPPPPPPQLPQPPPQAQPLLPQLQPPPPPPPPPPGPAAAEEPLHRP
notes: also called HTTEx1Q48; HTTex1Q48
- binding result: binds
